Series [1] can be described thus: Body weight of mice on high-fat diet (DAG) with intragastric peptide for 12 weeks. It counts as in vivo, mice (C57BL/6JN). The protocol:
(§1) For all the in vivo testing, male mice of the C57BL/6JN strain between 8 to 10 weeks of age were used, housed in groups of 3 to 5 mice per cage with food and water ad libitum in ventilated racks, and whose microbiota were unified for 4 weeks.
(§2) The mice received either 200 μL of a phosphate buffer solution (PBS) at pH 7.5 (as a vehicle), or 200 μL of the PBS solution, with each of the intragastric treatments daily for 12 weeks. They were fed either a Normal Diet (DN, Harlan, Teklad 2018SX) with 18% of the calories coming from fat, or a High-Fat Diet (DAG, Research Diets, D12491), with 60% of the calories coming from fat.
(§3) All the mice were randomly divided into five experimental groups in order to study the effect of SEQ ID NO: 3 and SEQ ID NO: 2 correctly: • Group 1—Mice with DN that received 200 μl of PBS intragastrically. • Group 2—Mice with DAG that received 200 μl of PBS intragastrically. • Group 3—Mice with DAG that received 200 μl of PBS with SEQ ID NO: 3 intragastrically at a dose of: 2.5 μg/mouse. • Group 4—Mice with DAG that received 200 μl of PBS with SEQ ID NO: 2 intragastrically at a dose of 0.6 μg/mouse (high dose). • Group 5—Mice with DAG that received 200 μl of PBS with SEQ ID NO: 2 intragastrically at a dose of 0.2 μg/mouse (low dose).
The animal weights and feed intakes were recorded weekly.
To determine the metabolic status of the animals before starting the experiment, weight, basal glucose levels, glucose tolerance, and insulin resistance were recorded.

Series [2] relates to adipose tissue. As to the kind of experiment: Cellular infiltrate / inflammatory process in adipose tissue of mice fed a high-fat diet. It counts as in vivo, mice (C57BL/6JN). The protocol: as §1, §2, §3
To determine the effect of the peptides SEQ ID NO: 2 and SEQ ID NO: 3 in attenuating the inflammatory process in adipose tissue, the cellular infiltrate of the adipose tissue of the mice was quantified after they had been fed DAG.

For series [3], the system named is IL-6. Briefly: IL-6 levels in mice fed a high-fat diet. It counts as in vivo, mice (C57BL/6JN). The note with it: 12 weeks; animals fed DAG. Here is the method:
as §1, §2, §3

In series [4] the test system is leptin. Briefly: Leptin levels in mice fed a high-fat diet. It is filed as in vivo, mice (C57BL/6JN). The note with it: 12 weeks; compared to mice fed only DAG. Here is the method: as §1, §2
as §3, with “(low dose). […]” for “(low dose).”

A short description of series [5]: Aggregation during ultrafiltration / buffer change. It counts as physicochemical. The text has this:
The protein of SEQ ID NO. 1, expressed in recombinant form in this invention, contains a tag of six residues of histidine at the carboxyl terminal end, allowing it to be purified by immobilized metal cation affinity chromatography (IMAC). Purification was initially evaluated with the soluble fractions of the two strains that were used for recombinant production, obtained by enzymatic lysis and sonication. The first approach with the Ni-NTA Agarose resin allowed for the recovery of 6% of the SEQ ID NO. 1 with a purity of 50-80%. An FPLC Ákta Prime chromatographic system and an XK16/20 column packed with 13 mL of Chelating Sepharose Fast Flow-Ni^+2 resin were used for purification. A minimum imidazole concentration of 30 mM was defined in both the sample to be injected and the equilibrium buffer. Elution was performed with 500 mM imidazole at 6.5 mL/min, resulting in a minimum recovery of 80% of SEQ ID No. 1 with 82% purity. The ultrafiltration of the tangential flow of SEQ ID NO. 1 during the chromatography stage, in order to concentrate and change the buffer, negatively impacted protein quality. However, the dialysis of EQ ID NO.
However, the aggregation of SEQ ID NO. […] This was corroborated by the SDSPAGE analysis, in which the remaining protein in the soluble fraction presented fragments of lower molecular weight than that of SEQ ID NO. 1, but greater than 25 kDa. On the other hand, the precipitate turned out to be denatured SEQ ID NO. 1, but not degraded.
Finally, SEQ ID NO. 4 and SEQ ID NO.

B1: peptide SEQ ID NO: 3 (carboxyl terminal domain of SEQ ID NO: 1) (peptide)
chain: QLPIETPANNPEESDEADQAPWTPMPLEIAFQGDRESVLKAMNAITGMQDYLFTVNSIRIRNERMMPPPIANPAAAKPAAAQPATGAASLTPADEAAAPAAPAIQQVIKPYMGKEQVFVQVSLNLVHFNQPKAQEPSED
As for B1, the Average weight in series [1] (0 weeks (initial state), DAG + SEQ ID NO: 3 group) is recorded as 21.4 grams; in series [1] (12 weeks, DAG + SEQ ID NO: 3, 2.5 μg/mouse intragastric daily), 37.9 grams. The “cellular infiltrate of adipose tissue” value in series [2] (12 weeks, versus DAG group) was “prevented the increase in cellular infiltrate induced by DAG”. Also, the “inflammatory process in adipose tissue” value in series [2] (SEQ ID NO:2 in high or low doses) was “attenuate the inflammatory process in adipose tissue”. Further, in series [3], the IL-6 levels entry is reported as “dramatic decrease in IL-6 levels”. Besides, the leptin secretion entry in series [4] is “decrease in leptin secretion”. Moreover, the “aggregation in ultrafiltration operations” value in series [5] was “no visible aggregation”.

The values are drawn from patent US20240400621A1, “PEPTIDES FOR METABOLIC SYNDROME” (ALPARIS, S.A. de C.V., priority 2021, published 2024).
